The data set in a line: label from the status in PepcDB records.

We go through 30 sequences from a protein production outcome set (Wang et al. 2014).

On to “LDRAYLRVENQRYRDKLEAANRELQASLNLLQEDQNAGRQVQMNMLPVTPWSIEGLEFSHRIIPSLYLSGDFVDYFRVDERRVAFYLADVSGHGASSAFVTVLLKFMTTRLLYESRRNGTLPEFKPSEVLAHINRGLINTKLGKHVTMLGGVIDLEKNSLTYSIGGHLPLPVLFVEGQAGYLEGRGLPVGLFDDATYDDRVMELPPSFSLSLFSDGILDVLPGATLKEKEASLPEQVAAAGGTLDGLRQVFGLANLAEMPDDIALLVLSRNLA”, for which the protein production entry is “failed”.
As to “LDSELELPAGWEKIEDPVYGIYYVDHINRKTQYENPVLEAKRKKQLE”, the protein production entry is “not failed”.
The value for “LEEVQLVVEPEGGAVAPGGTVTLTCEVPAQPSPQIHWMKDGVPLPLPPSPVLILPEIGPQDQGTYSCVATHSSHGPQESRAVSISIIEPGEEGPTAGSVGGSGLGTLALALGILGGLGTAALLIGVILWQRRQRRGEERKAPENQEEEEERAELNQSEEPEAGESSTGGP” was “not failed”.
With “LEKNDLVYMQRAFELNDKVAKDIMIDRTQLVVIDITSTVKEALNVYLQERFSRLPVVADNDKDKVLGYVYNYDLTRQQQVDSSVRVDKLIRDISTTPETTPITQVLQQMIKKRTPIVVVVDEYGGTSGIITDKDIYEEL” the entry was “failed”; with “LELLEALSLPVWIFDIDHRRVFWANEAALQVWGAGSLLELQTRDMARDMSVSVAQRLAQYQQDFEREGASFVESWTLYPNGRPSVLKVKFRGIRVNGRMLMFCEAQN”, “failed”.
For “LEPRKKAEEALRKSEERFAKAFRMAPVPSLVLYGDDLQALDINQAFSETFGYQAEELLGESTVACGLWQDGGAERLGELLAQSGSVRNVQLRLQHKDRNGLDCLVSAEAVSLNEQDCVLVALLDIS”, the protein production result is recorded as “not failed”.
With “LETSWIKPGQASWEWWNDAAPYGPDVNFVSGYNLETYKYYIDFASKYGIRYIIMDEGWAKSTRDPYTPNAKVDVHELIRYAEKKNVGIVLWLTWLTVENNMDLFKTFSEWGVKGVKIDFMDRSDQWMMNFYERVAAEAAKYKLFVDFHGSVSPKGLEYKYPNVLSYEGVRGMEQMGGATPDNSIFMPFMRNAVGAMD” the entry was “not failed”; with “LFQRVLYATDFSENATRAFDAFQYLRHATQEATLVHVESPKDATSEADPAEQLASLADTLSQWDIETNVEVRRGDPAEEILDVEAAVTPTTTLVGSRGQSRMRRLLLGSVSEDIIAQATGNVYLVPPP”, “failed”.
As to “LGLVCLTVGPEVRFRTVTLSRYRALSPAEREAKLLDLYSSNIKTLRGAADYCAAHDIRLYRLSSSLFPMLDLAGDDTGAAVLTHLAPQLLEAGHAFTDAGVRLLMHPEQFIVLNSDRPEVRESSVRAMSAHARVMDGLGLARTPWNLLLLHGGKGGRGAELAALIPDLPDPVRLRLGLENDERAYSPAELLPICEATGTPLVFDAHHHVVHDKLPDQEDPSVREWVLRARATWQPPEWQVVHLSNGIEGPQDRRHSHLIADFPSAYADVPWIEVEAKGKEEAIAALRLMAPFKKD”, the protein production entry was “failed”.
With “LIIFCLLSVVAAAAYFSFSHWAIRHETLTFFDESRGRPVAIDLAVRRDAEMKAEAGMVTLPVAVVSHGNTVKNTEYSFLANVLAARGYLVASIQHDLPDDKPLMTVAGSLYVGRLAVYERGEKNIFFALKELKKLEPNADYDHLTLVGHSNGGDISMFFAQQHPEMVRRVVTLD” the entry was “failed”; with “LKVLTNKASVMLFMKGNKQEAKCGFSKQILEILNSTGVEYETFDILEDEEVRQGLKTFSNWPTYPQLYVRGDLVGGLDIVKELKDNGELLPILKGE”, “not failed”; with “LLGELNEWLQSCRSLEELFAMVSRFMEHILPDAEGSLYVYSNSRDVLDGSAGWNGGAFKDHIHPEACWGLRRGRSYEYGASEVDFVCDHAEPHDGRPYFCFPVLAHGETVGLMHLRAQPGAEAEFSASKRLAQMCAEQISMAIANVRMRDQLHDQ”, “failed”.
The value for “LLHRTFMADAGWSDLKAFEVILRHIPHDAALHAANSTPVRYLQLFEHAHYAGGEWSNRGTNGIEGATSTAMGFSEVYSGTTLLITGDLSFMYDSNALWMPYVNGRIRVIVMRNGGGGIFRFIPGPDSLKELETCFETPLEVPVREMAGAYGWRYMKAVSAEELETVLPSFFASGDRAVLLEVETPRFENAPVLKSYFTYISGESYPVNR” was “failed”; that for “LLKVEFYKLKRSKVFYLFIVLMIMQSMFVLIPIKENYLLNKTGQDMFLQSFPLQEFIFNTLIIGAFGYFIGKEFHSGYIKNLIVSGHKRINIVLSKAIVFCIGVAIISFIFPICTFVINSIRNGYGEKYSVEYMFEVSVIMLFVYLAIGSIVTMISFITKNIAITIALFYLI” was “failed”.
The value for “LLTSQIVDQYAEHIFYNSGAVGMALVVIDNNQVVNRSFGETQPGNNIRPRPDSLIRIASITKLMTSEIMVKLADDGIVKLTDPLKKYAPKGVNVPSYSAKQPIRLLHLASHTSGLPREQPGGPQKRPVFTWPTKDNRWQWLKLAKVTVPPGVKAAYSNLAYDLLADALSRAAGKPYAHLLRDKITAPLGMKNTTLTPTAEQCKRLMIGVGSSRCGNTVAAAGSGGIYSTPEDMQHWMQQFLASDNSAPKRSAKREQALYFQRGDLVSLKGMDVAGQADALGLGWVYMAPKADLPGIMQKTGGGGGFITYMAMVPEKNIGVFVVVTRSQLTKFSNMSDGVNQLVAELVK” was “not failed”.
For “LPPKKFGNPGERLRKKKWDLSELPKFEKNFYVEHPEVARLTPYEVDELRRKKEITVRGGDVCPKPVFAFHHANFPQYVMDVLMDQHFTEPTPIQCQGFPLALSGRDMVGIAQTGSGKTLAYLLPAIVHINHQPYLERGDGPICLVLAPTRELAQQVQQVADDYGKCSRLKSTCIYGGAPKGPQIRDLERGVEICIATPGRLIDFLESGKTNLRRCTYLVLDEADRMLDMGFEPQIRKIVDQIRPDRQTLMWSATWPKEVRQLAEDFLRDYTQINVGNLELSANHNILQIVDVCMESEKDHKLIQLMEEIMAEKENKTIIFVETK”, the protein production entry is reported as “failed”.
With “LQVGKVYIFGSGHVARALVPILNYLSFYCVVVDDRPEFLTAQAFPQAEELRVIPLENLAAFIEITADDYGIVITRGHNFDFIVAKQLLETPAKYIGVMGSKHKIASQVRRLKEVGYTMTEIERIFMPIGLDIAAETPEELAISIAGELIQQRYQ” the entry was “failed”.
“LRARTYGEGGFRVERVLEERPAFTRVQFSYLSDGLRVHGFANLPKGRGPFPVVVVLHGYVEPSRYRLLAYTTPYADFLAERGYLVLHPNFRGHPPSEGAPAQGLRHVYAVDVLNLLAEVRRGAFPQADPAR”: the protein production entry is recorded as “failed”.
The value for “LRKMIALIHKDYAKNLRLETLASVFNYNRAYLGKLFKNYTGEYFNTYLDKVRIENGKRLLQKGYKVYEVAEKIGYANVDYFHRKFKKYVGVSPSTFRKR” was “not failed”.
With “LRKMIALIHKDYAKNLRLETLASVFNYNRAYLGKLFKNYTGEYFNTYLDKVRIENGKRLLQKGYKVYEVAEKIGYANVDYFHRKFKKYVGVSPSTFRKRHDHLQVYHD” the entry was “failed”.
With “LRQSQQMLQLVMDTIPHSVFWKDRNSVFLGCNRNFAIMVGYEHPENLIGKTDYDFLPDPRNADLYRQCDARIIETNNPEYHIIEPMLAPDGQQIWLETNKVPLHDPEGNVVGVLGTFEDITERKQVQEA” the entry was “failed”; with “LSANYAENLQAQQRSAQRLEHQAWLRTGQTQLAQQVLGQLTLPMLGENILRFFASYLGSVVGAVYVRDEHGRLVRVACYGLSTEEQAREQIESDHHGLLAQAVREGRLLRLEELPEDFYRLSSGLGSGLPRSALLMPATEDGQINGVIELGFLRPLQERDEELLERVGGNLGMSIESA”, “failed”.
On to “LSDKLMERLKERAEGIFVSGPPGSGKSTFVAALAEFYRSQGKIVKTMESPRDLQVSKEITQYAPLEGDMEKTCDILLLVRPDYTIYDEVRKTRDFEIFADMRMAGVGMVGVVHASKPIDAIQRLIGRVELGVIPQVVDTVIFIKDGKIQKVYEIDFTVKVPYG”, for which the protein production entry was “failed”.
Regarding “LSEVEFVEFQKENFSLLIDARSPREFLHSHLIGALNFYALNDEEYQEIGTIYKKNQALAKAMGASYICQNTTKHILEITQNFRIGEKVGIYCSRGGLRSKSIAVILSELGFRVVRLKGGFKAYRTFVTHYFEN”, the protein production result is “failed”.
Regarding “LSIPEDYQARLQPNRVEGSYPLVRMEFTGATVDAPLMSQISRKYNIDVSILSSDLDYAGGVKFGMMVAELFGNEQDDSAAIEYLREHNVKVEVLGYVL”, the protein production entry is “not failed”.
For the sequence “LSNLETAKAMIAAYNAQDVDTYVSYMTDDACEANYRGDVVREGKEGTRSGLAAAFARWPQNHAEIKDAQQVGTYVLMREHVTRGPATDGSPLVEPFDVVAVYSFEGDKCSRVEFIR”, the protein production result is given as “not failed”.
“LSPPRGLVAVRTPRGVLLHWDPPELVPKRLDGYVLEGRQGSQGWEVLDPAVAGTETELLVPGLIKDVLYEFRLVAFAGSFVSDPSNTANVSTSGL”: the protein production result is “not failed”.
Regarding “LTFETLAREWFAYNSPRWAESTTYKAKLYMENDLIPGIGARPVKALTRPDLVDLVRKVEARGTLNAAGKIRQWLHQIFRYGLAKGVVESNPATDLDVVAAP”, the protein production result is “failed”.
The value for “MAAAAATAVGPGAGSAGVAGPGGAGPCATVSVFPGARLLTIGDANGEIQRHAEQQALRLEVRAGPDAAGIALYSHEDVCVFKCSVSRETECSRVGRQSFIITLGCNSVLIQFATPHDFCSFYNILKTCRGHTLERSVFSERTEESSAVQYFQFYGYLSQQQNMMQDYVRTGTYQRAILQNHTDFKDKIVLDVGCGSGILSFFAAQAGARKIYAVEASTMAQHAEVLVKSNNLTDRIVVIPGKVEEVSLPEQVDIIISEPMGYMLFNERMLESYLHAKKYLKPSGNMFPTIGDVHLAPFTDEQLYMEQFTKANFWYQPSFHGVDLSALRGAAVDEYFRQPVVDTFDIRILMAKSVKYTVNFLEAKEGDLHRIEIPFKFHMLHSGLVHGLAFWFDVAFIGSIMTVWLSTAPTEPLTHWYQVRCLFQSPLFAKAGDTLSGTCLLIANKRQSYDISIVAQVDQTGSKSSNLLDLKNPFFRYTGTTPSPPPGSHYTSPSENMWNTGSTYNLSSGVAVAGMPTAYDLSSVIAGGSSVGHNNLIPLANTGIVNHTHSRMGSIMSTGIVQGNRVAGPWAGDLPPGLRTRSSYQWGPGRLRGHAGSSVPMTCPTGSSGAQGGGGSSSAHYAVNNQFTMGGPAISMASPMSIPTNTMHYGS” was “failed”.
With “MAAAPWYIRQRDTDLLGKFKFIQNQEDGRLREATNGTVNSRWSLGVSIEPRNDARNRYVNIMPYERNRVHLKTLSGNDYINASYVKVNVPGQSIEPGYYIATQGPTRKTWDQFWQMCYHNCPLDNIVIVMVTPLVEYNREKCYQYWPRGGVDDTVRIASKWESPGGANDMTQFPSDLKIEFVNVHKVKDYYTVTDIKLTPTDPLVGPVKTVHHFYFDLWKDMNKPEEVVPIMELCAHSHSLNSRGNPIIVHCSAGVGRTGTFIALDHLMHDTLDFKNITERSRHSDRATEEYTRDLIEQIVLQLRSQRMKMVQTKDQFLFIYHAAKYLNSLSVNQ” the entry was “failed”.
